In US20170073382:

Target: synthetic TAL effector (RVG-LAMP-2B-NLS-TALE) (Artificial Sequence) (UniProt P14727)
Assay: cell_activity

gfaABC1D-NeuroD1 plasmid without TAL effector binding site
binding signal: 1 fold
